Source: patent US20250304650A1

What follows are binders tested against feline FcRn (FCN-F82W3, Acrobiosystems) (feline) (assay: SPR Carterra, IgG coupled, pH 6.0).

| Kd | koff | kon | Binder |
| --- | --- | --- | --- |
| 9.9 nM | 0.0162 s⁻¹ | 1.63e+06 M⁻¹ s⁻¹ | anti-NGF feline IgG1a, Fc variant S428L, I383L (antibody, part only; not given: anti-NGF variable domains, light chain, not shown: another chain or arm of the molecule; small tags and cut ends) Fc: PPEMLGGPSIFIFPPKPKDTLSISRTPEVTCLVVDLGPDDSDVQITWFVDNTQVYTAKTSPREEQFNSTYRVVSVLPILHQDWLKGKEFKCKVNSKSLPSPIERTISKAKGQPHEPQVYVLPPAQEELSRNKVSVTCLIKSFHPPDIAVEWELTGQPEPENNYRTTPPQLDSDGTYFVYSKLSVDRSHWQRGNTYTCSVLHEALHSHHTQKSLTQSPGK |
| 107 nM | 0.0557 s⁻¹ | 521000 M⁻¹ s⁻¹ | anti-NGF feline IgG1a, Fc variant S254K (antibody, part only; not given: Anti-NGF variable domains, not shown: another chain or arm of the molecule; small tags and cut ends) Fc: PPEMLGGPSIFIFPPKPKDTLSIKRTPEVTCLVVDLGPDDSDVQITWFVDNTQVYTAKTSPREEQFNSTYRVVSVLPILHQDWLKGKEFKCKVNSKSLPSPIERTISKAKGQPHEPQVYVLPPAQEELSRNKVSVTCLIKSFHPPDIAVEWEITGQPEPENNYRTTPPQLDSDGTYFVYSKLSVDRSHWQRGNTYTCSVSHEALHSHHTQKSLTQSPGK |
| 9.6 nM | 0.0109 s⁻¹ | 1.14e+06 M⁻¹ s⁻¹ | anti-NGF feline IgG1a, Fc variant S428L, N389c-R (antibody, part only; not given: anti-NGF variable domains, light chain, not shown: another chain or arm of the molecule; small tags and cut ends) Fc: PPEMLGGPSIFIFPPKPKDTLSISRTPEVTCLVVDLGPDDSDVQITWFVDNTQVYTAKTSPREEQFNSTYRVVSVLPILHQDWLKGKEFKCKVNSKSLPSPIERTISKAKGQPHEPQVYVLPPAQEELSRNKVSVTCLIKSFHPPDIAVEWEITGQPEPERNYRTTPPQLDSDGTYFVYSKLSVDRSHWQRGNTYTCSVLHEALHSHHTQKSLTQSPGK |
| 127 nM | 0.045 s⁻¹ | 353000 M⁻¹ s⁻¹ | anti-NGF feline IgG1a, Fc variant L309V (antibody, part only; not given: anti-NGF variable domains, light chain, not shown: another chain or arm of the molecule; small tags and cut ends) Fc: PPEMLGGPSIFIFPPKPKDTLSISRTPEVTCLVVDLGPDDSDVQITWFVDNTQVYTAKTSPREEQFNSTYRVVSVLPIVHQDWLKGKEFKCKVNSKSLPSPIERTISKAKGQPHEPQVYVLPPAQEELSRNKVSVTCLIKSFHPPDIAVEWEITGQPEPENNYRTTPPQLDSDGTYFVYSKLSVDRSHWQRGNTYTCSVSHEALHSHHTQKSLTQSPGK |
| 102 nM | 0.0415 s⁻¹ | 406000 M⁻¹ s⁻¹ | anti-NGF feline IgG1a, Fc variant L309E (antibody, part only; not given: anti-NGF variable domains, light chain, not shown: another chain or arm of the molecule; small tags and cut ends) Fc: PPEMLGGPSIFIFPPKPKDTLSISRTPEVTCLVVDLGPDDSDVQITWFVDNTQVYTAKTSPREEQFNSTYRVVSVLPIEHQDWLKGKEFKCKVNSKSLPSPIERTISKAKGQPHEPQVYVLPPAQEELSRNKVSVTCLIKSFHPPDIAVEWEITGQPEPENNYRTTPPQLDSDGTYFVYSKLSVDRSHWQRGNTYTCSVSHEALHSHHTQKSLTQSPGK |
| 95.2 nM | 0.0435 s⁻¹ | 457000 M⁻¹ s⁻¹ | anti-NGF feline IgG1a, Fc variant R301L (antibody, part only; not given: anti-NGF variable domains, not shown: another chain or arm of the molecule; small tags and cut ends) Fc: PPEMLGGPSIFIFPPKPKDTLSISRTPEVTCLVVDLGPDDSDVQITWFVDNTQVYTAKTSPREEQFNSTYLVVSVLPILHQDWLKGKEFKCKVNSKSLPSPIERTISKAKGQPHEPQVYVLPPAQEELSRNKVSVTCLIKSFHPPDIAVEWEITGQPEPENNYRTTPPQLDSDGTYFVYSKLSVDRSHWQRGNTYTCSVSHEALHSHHTQKSLTQSPGK |
| 9.9 nM | 0.00977 s⁻¹ | 983000 M⁻¹ s⁻¹ | anti-NGF feline IgG1a, Fc variant T260E, L309E, Q355L (antibody, part only; not given: anti-NGF variable domains, not shown: another chain or arm of the molecule; small tags and cut ends) Fc: PPEMLGGPSIFIFPPKPKDTLSISRTPEVECLVVDLGPDDSDVQITWFVDNTQVYTAKTSPREEQFNSTYRVVSVLPIEHQDWLKGKEFKCKVNSKSLPSPIERTISKAKGQPHEPQVYVLPPALEELSRNKVSVTCLIKSFHPPDIAVEWEITGQPEPENNYRTTPPQLDSDGTYFVYSKLSVDRSHWQRGNTYTCSVSHEALHSHHTQKSLTQSPGK |
| 59.2 nM | 0.0116 s⁻¹ | 196000 M⁻¹ s⁻¹ | anti-NGF feline IgG1a, Fc variant Q311R (antibody, part only; not given: Anti-NGF variable domains, not shown: another chain or arm of the molecule; small tags and cut ends) Fc: PPEMLGGPSIFIFPPKPKDTLSISRTPEVTCLVVDLGPDDSDVQITWFVDNTQVYTAKTSPREEQFNSTYRVVSVLPILHRDWLKGKEFKCKVNSKSLPSPIERTISKAKGQPHEPQVYVLPPAQEELSRNKVSVTCLIKSFHPPDIAVEWEITGQPEPENNYRTTPPQLDSDGTYFVYSKLSVDRSHWQRGNTYTCSVSHEALHSHHTQKSLTQSPGK |
| 128 nM | 0.0849 s⁻¹ | 661000 M⁻¹ s⁻¹ | anti-NGF feline IgG1a, Fc variant S290Y (antibody, part only; not given: anti-NGF variable domains, not shown: another chain or arm of the molecule; small tags and cut ends) Fc: PPEMLGGPSIFIFPPKPKDTLSISRTPEVTCLVVDLGPDDSDVQITWFVDNTQVYTAKTYPREEQFNSTYRVVSVLPILHQDWLKGKEFKCKVNSKSLPSPIERTISKAKGQPHEPQVYVLPPAQEELSRNKVSVTCLIKSFHPPDIAVEWEITGQPEPENNYRTTPPQLDSDGTYFVYSKLSVDRSHWQRGNTYTCSVSHEALHSHHTQKSLTQSPGK |
| 4.9 nM | 0.00795 s⁻¹ | 1.63e+06 M⁻¹ s⁻¹ | anti-NGF feline IgG1a, Fc variant S252R, L262Q (antibody, part only; not given: anti-NGF variable domains, light chain, not shown: another chain or arm of the molecule; small tags and cut ends) Fc: PPEMLGGPSIFIFPPKPKDTLRISRTPEVTCQVVDLGPDDSDVQITWFVDNTQVYTAKTSPREEQFNSTYRVVSVLPILHQDWLKGKEFKCKVNSKSLPSPIERTISKAKGQPHEPQVYVLPPAQEELSRNKVSVTCLIKSFHPPDIAVEWEITGQPEPENNYRTTPPQLDSDGTYFVYSKLSVDRSHWQRGNTYTCSVSHEALHSHHTQKSLTQSPGK |
| 93.4 nM | 0.0457 s⁻¹ | 489000 M⁻¹ s⁻¹ | anti-NGF feline IgG1a, Fc variant T286E (antibody, part only; not given: anti-NGF variable domains, light chain, not shown: another chain or arm of the molecule; small tags and cut ends) Fc: PPEMLGGPSIFIFPPKPKDTLSISRTPEVTCLVVDLGPDDSDVQITWFVDNTQVYEAKTSPREEQFNSTYRVVSVLPILHQDWLKGKEFKCKVNSKSLPSPIERTISKAKGQPHEPQVYVLPPAQEELSRNKVSVTCLIKSFHPPDIAVEWEITGQPEPENNYRTTPPQLDSDGTYFVYSKLSVDRSHWQRGNTYTCSVSHEALHSHHTQKSLTQSPGK |
| 8 nM | 0.00973 s⁻¹ | 1.22e+06 M⁻¹ s⁻¹ | anti-NGF feline IgG1a, Fc variant S428L, E380D, S434R (antibody, part only; not given: Anti-NGF variable domains, not shown: another chain or arm of the molecule; small tags and cut ends) Fc: PPEMLGGPSIFIFPPKPKDTLSISRTPEVTCLVVDLGPDDSDVQITWFVDNTQVYTAKTSPREEQFNSTYRVVSVLPILHQDWLKGKEFKCKVNSKSLPSPIERTISKAKGQPHEPQVYVLPPAQEELSRNKVSVTCLIKSFHPPDIAVDWEITGQPEPENNYRTTPPQLDSDGTYFVYSKLSVDRSHWQRGNTYTCSVLHEALHRHHTQKSLTQSPGK |
| 97.4 nM | 0.0389 s⁻¹ | 400000 M⁻¹ s⁻¹ | anti-NGF feline IgG1a, Fc variant T286D (antibody, part only; not given: anti-NGF variable domains, not shown: another chain or arm of the molecule; small tags and cut ends) Fc: PPEMLGGPSIFIFPPKPKDTLSISRTPEVTCLVVDLGPDDSDVQITWFVDNTQVYDAKTSPREEQFNSTYRVVSVLPILHQDWLKGKEFKCKVNSKSLPSPIERTISKAKGQPHEPQVYVLPPAQEELSRNKVSVTCLIKSFHPPDIAVEWEITGQPEPENNYRTTPPQLDSDGTYFVYSKLSVDRSHWQRGNTYTCSVSHEALHSHHTQKSLTQSPGK |
| 3.8 nM | 0.012 s⁻¹ | 3.17e+06 M⁻¹ s⁻¹ | anti-NGF feline IgG1a, Fc variant S428L, E380T, S434R (antibody, part only; not given: anti-NGF variable domains, not shown: another chain or arm of the molecule; small tags and cut ends) Fc: PPEMLGGPSIFIFPPKPKDTLSISRTPEVTCLVVDLGPDDSDVQITWFVDNTQVYTAKTSPREEQFNSTYRVVSVLPILHQDWLKGKEFKCKVNSKSLPSPIERTISKAKGQPHEPQVYVLPPAQEELSRNKVSVTCLIKSFHPPDIAVTWEITGQPEPENNYRTTPPQLDSDGTYFVYSKLSVDRSHWQRGNTYTCSVLHEALHRHHTQKSLTQSPGK |
| 10.7 nM | 0.00997 s⁻¹ | 931000 M⁻¹ s⁻¹ | anti-NGF feline IgG1a, Fc variant S290V, R334D (antibody, part only; not given: anti-NGF variable domains, light chain, not shown: another chain or arm of the molecule; small tags and cut ends) Fc: PPEMLGGPSIFIFPPKPKDTLSISRTPEVTCLVVDLGPDDSDVQITWFVDNTQVYTAKTVPREEQFNSTYRVVSVLPILHQDWLKGKEFKCKVNSKSLPSPIEDTISKAKGQPHEPQVYVLPPAQEELSRNKVSVTCLIKSFHPPDIAVEWEITGQPEPENNYRTTPPQLDSDGTYFVYSKLSVDRSHWQRGNTYTCSVSHEALHSHHTQKSLTQSPGK |
| 24.5 nM | 0.0324 s⁻¹ | 1.33e+06 M⁻¹ s⁻¹ | anti-NGF feline IgG1a, Fc variant R392E (antibody, part only; not given: anti-NGF variable domains, light chain, not shown: another chain or arm of the molecule; small tags and cut ends) Fc: PPEMLGGPSIFIFPPKPKDTLSISRTPEVTCLVVDLGPDDSDVQITWFVDNTQVYTAKTSPREEQFNSTYRVVSVLPILHQDWLKGKEFKCKVNSKSLPSPIERTISKAKGQPHEPQVYVLPPAQEELSRNKVSVTCLIKSFHPPDIAVEWEITGQPEPENNYETTPPQLDSDGTYFVYSKLSVDRSHWQRGNTYTCSVSHEALHSHHTQKSLTQSPGK |
| 233 nM | 0.11 s⁻¹ | 472000 M⁻¹ s⁻¹ | anti-NGF feline IgG1a with wild-type Fc (antibody, part only; not given: anti-NGF variable domains, not shown: another chain or arm of the molecule; small tags and cut ends) Fc: PPEMLGGPSIFIFPPKPKDTLSISRTPEVTCLVVDLGPDDSDVQITWFVDNTQVYTAKTSPREEQFNSTYRVVSVLPILHQDWLKGKEFKCKVNSKSLPSPIERTISKAKGQPHEPQVYVLPPAQEELSRNKVSVTCLIKSFHPPDIAVEWEITGQPEPENNYRTTPPQLDSDGTYFVYSKLSVDRSHWQRGNTYTCSVSHEALHSHHTQKSLTQSPGK |
| 146 nM | 0.0665 s⁻¹ | 455000 M⁻¹ s⁻¹ | anti-NGF feline IgG1a, Fc variant E293H (antibody, part only; not given: anti-NGF variable domains, light chain, not shown: another chain or arm of the molecule; small tags and cut ends) Fc: PPEMLGGPSIFIFPPKPKDTLSISRTPEVTCLVVDLGPDDSDVQITWFVDNTQVYTAKTSPRHEQFNSTYRVVSVLPILHQDWLKGKEFKCKVNSKSLPSPIERTISKAKGQPHEPQVYVLPPAQEELSRNKVSVTCLIKSFHPPDIAVEWEITGQPEPENNYRTTPPQLDSDGTYFVYSKLSVDRSHWQRGNTYTCSVSHEALHSHHTQKSLTQSPGK |
| 10.7 nM | 0.0123 s⁻¹ | 1.15e+06 M⁻¹ s⁻¹ | anti-NGF feline IgG1a, Fc variant R301L, E380V, T437L (antibody, part only; not given: anti-NGF variable domains, light chain, not shown: another chain or arm of the molecule; small tags and cut ends) Fc: PPEMLGGPSIFIFPPKPKDTLSISRTPEVTCLVVDLGPDDSDVQITWFVDNTQVYTAKTSPREEQFNSTYLVVSVLPILHQDWLKGKEFKCKVNSKSLPSPIERTISKAKGQPHEPQVYVLPPAQEELSRNKVSVTCLIKSFHPPDIAVVWEITGQPEPENNYRTTPPQLDSDGTYFVYSKLSVDRSHWQRGNTYTCSVSHEALHSHHLQKSLTQSPGK |
| 35.3 nM | 0.00927 s⁻¹ | 262000 M⁻¹ s⁻¹ | anti-NGF feline IgG1a, Fc variant S252R, A378E (antibody, part only; not given: Anti-NGF variable domains, not shown: another chain or arm of the molecule; small tags and cut ends) Fc: PPEMLGGPSIFIFPPKPKDTLRISRTPEVTCLVVDLGPDDSDVQITWFVDNTQVYTAKTSPREEQFNSTYRVVSVLPILHQDWLKGKEFKCKVNSKSLPSPIERTISKAKGQPHEPQVYVLPPAQEELSRNKVSVTCLIKSFHPPDIEVEWEITGQPEPENNYRTTPPQLDSDGTYFVYSKLSVDRSHWQRGNTYTCSVSHEALHSHHTQKSLTQSPGK |
